Assay results taken from paper PMC2821155.
Values joined by “and” are separate entries in the source; they are usually repeats but may differ in a detail not shown here. Equal entries are not always repeated. Where two headings read alike, the source gives them in different places. Values belong to the molecule of their own block, whether it stands above or below them.

Tests used:
Assay in all cases: native gel or EMSA
GluA1 = GluA1 (UniProt P19490)
[1] = biological target: GluA1 Lurcher mutant (A636T) (UniProt P19490)
[2] = biological target: GluA1 Lurcher mutant (A636T) (UniProt P19490); remark: listed apart in the source
[3] = biological target: GluA1ΔNTD Lurcher mutant (A636T)
HA-GluA1 = HA-GluA1 (UniProt P19490)
HA-GluA1ΔNTD = biological target: HA-GluA1ΔNTD
HA-GluA1ΔNTD-GFP×3 = biological target: HA-GluA1ΔNTD-GFP×3
[4] = biological target: neuronal AMPA receptor complex detected using the anti-GluA2/3 antibody (mouse (endogenous in cerebellar granule cells)) (UniProt P23819)
Chain of UniProt P23819 (P23819 25-883, one chain of several): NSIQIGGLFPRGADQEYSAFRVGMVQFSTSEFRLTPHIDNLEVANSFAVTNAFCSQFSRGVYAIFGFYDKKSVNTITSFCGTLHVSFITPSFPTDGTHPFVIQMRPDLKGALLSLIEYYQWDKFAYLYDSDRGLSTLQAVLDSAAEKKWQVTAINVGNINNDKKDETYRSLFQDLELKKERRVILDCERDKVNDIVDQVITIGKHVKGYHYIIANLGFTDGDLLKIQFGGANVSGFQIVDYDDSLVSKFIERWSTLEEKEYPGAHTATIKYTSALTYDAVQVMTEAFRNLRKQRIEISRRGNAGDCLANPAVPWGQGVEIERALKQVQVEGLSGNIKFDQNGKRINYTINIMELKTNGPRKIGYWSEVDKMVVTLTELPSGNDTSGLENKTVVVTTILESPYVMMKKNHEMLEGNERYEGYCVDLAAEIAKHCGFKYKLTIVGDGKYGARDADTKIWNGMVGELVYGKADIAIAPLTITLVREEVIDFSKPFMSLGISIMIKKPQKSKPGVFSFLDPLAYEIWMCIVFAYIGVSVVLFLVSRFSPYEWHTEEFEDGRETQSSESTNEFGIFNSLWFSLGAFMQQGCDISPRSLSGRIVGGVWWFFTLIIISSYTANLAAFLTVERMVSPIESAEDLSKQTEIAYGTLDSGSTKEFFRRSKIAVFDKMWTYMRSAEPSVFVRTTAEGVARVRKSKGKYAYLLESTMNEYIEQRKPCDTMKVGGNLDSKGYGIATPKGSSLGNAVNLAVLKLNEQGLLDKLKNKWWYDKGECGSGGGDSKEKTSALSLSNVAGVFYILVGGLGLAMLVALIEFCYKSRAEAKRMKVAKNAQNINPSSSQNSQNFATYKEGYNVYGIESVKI

Molecule: GluA1 (from UniProt P19490 19-907) (receptor)
stoichiometry N (subunits in the oligomer) (GluA1): 4 and 2

Molecule: GluA1ΔNTD Lurcher mutant (A636T) (domain or fragment)
stoichiometry N (subunits in the oligomer) [3]: 4

Molecule: HA-GluA1 (from UniProt P19490 19-907) (receptor)
stoichiometry N (subunits in the oligomer) (HA-GluA1): 4

Molecule: HA-GluA1ΔNTD (domain or fragment)
stoichiometry N (subunits in the oligomer) (HA-GluA1ΔNTD): 4

Molecule: HA-GluA1ΔNTD-GFP×3 (domain or fragment)
stoichiometry N (subunits in the oligomer) (HA-GluA1ΔNTD-GFP×3): 4

Now from value to molecule:

stoichiometry N (subunits in the oligomer) [1]: 2
stoichiometry N (subunits in the oligomer) [2]: 4
Molecule: GluA1 Lurcher mutant (A636T) (from UniProt P19490 19-907) (receptor)

stoichiometry N (stargazin per AMPA receptor tetramer) [4]: 1
B1: stargazin (endogenous, cerebellar granule cells) (natural protein)
chain: MGLFDRGVQMLLTTVGAFAAFSLMTIAVGTDYWLYSRGVCKTKSVSENETSKKNEEVMTHSGLWRTCCLEGNFKGLCKQIDHFPEDADYEADTAEYFLRAVRASSIFPILSVILLFMGGLCIAASEFYKTRHNIILSAGIFFVSAGLSNIIGIIVYISANAGDPSKSDSKKNSYSYGWSFYFGALSFIIAEMVGVLAVHMFIDRHKQLRATARATDYLQASAITRIPSYRYRYQRRSRSSSRSTEPSHSRDASPVGVKGFNTLPSTEISMYTLSRDPLKAATTPTATYNSDRDNSFLQVHNCIQKDSKDSLHANTANRRTTPV
